{"source": "paper PMC7586228", "key": {"[1]": {"experiment": "Golgi residence time, live imaging with CHX", "details": "glycan lost; control: DMSO"}, "[2]": {"experiment": "immunofluorescence, colocalisation with GM130", "details": "glycan lost; control: DMSO"}}, "data": [{"substance": "transferrin receptor (TfR): GalNAc-O-Bn", "values": [{"measurement": "localisation_or_trafficking", "setting": "[1]", "result": "increases"}, {"measurement": "localisation_or_trafficking", "setting": "[2]", "result": "changes"}]}]}
